This note sets out measurements from patent publication US6018029.

This experiment addresses IL-1 receptor on the THP-1 human monocyte cell line (human) (UniProt P14778).

IL-1B (ligand) displayed an IL-6 message level (IL-6 mRNA, Northern blot, arbitrary units) (arbitrary units) of 12.
